Consider six molecules from paper PMC7305185 (2020).

Positions count from the first letter of the chain named. In names and notes the source's numbering stands.

The experiment deals with eukaryotic translation initiation factor 4E (eIF4E) (UniProt P06730 1-217). Briefly: ITC.
eukaryotic translation initiation factor 4E (eIF4E), sequence (P06730 whole entry): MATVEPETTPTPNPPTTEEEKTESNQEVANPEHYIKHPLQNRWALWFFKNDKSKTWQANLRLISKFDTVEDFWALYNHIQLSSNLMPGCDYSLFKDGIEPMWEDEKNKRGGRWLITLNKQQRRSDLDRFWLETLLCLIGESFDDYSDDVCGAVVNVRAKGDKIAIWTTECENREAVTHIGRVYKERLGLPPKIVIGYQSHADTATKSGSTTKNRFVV

B1: pT37 4E-BP2 (protein)
chain: MSSSAGSGHQPSQSRAIPTRTVAISDAAQLPHDYCTTPGGTLFSTAPGGTRIIYDRKFLLDRRNAPMAQAPPCHLPNIPGVTAPGTLIEDSKVEVNNLNNLNNHDRKHAVGDDAQFEMDI
modifications: phospho-Thr37
In the case of B1, the dissociation constant (Kd) is 7.2 nM.

B2: pT37 pT46 (Two-phospho) 4E-BP2 (protein)
chain: B1 chain with A46T
modifications: phospho-Thr37, phospho-Thr46
In the case of B2, the Kd was determined as 267 nM.

B3: pT46 4E-BP2 (protein)
chain: B1 chain with T37A, A46T
modifications: phospho-Thr46
The molecule B3 displayed a Kd of 2.4 nM.

B4: pS65 pT70 pS83 (T37A/T46A) 4E-BP2 (protein)
chain: B1 chain with T37A, A65S, A70T, A83S
modifications: phospho-Ser65, phospho-Thr70, phospho-Ser83
Molecule B4 displayed a Kd of 11.3 nM.

B5: G39V/G48V Five-phospho 4E-BP2 (protein)
chain: B1 chain with G39V, A46T, G48V, A65S, A70T, A83S
modifications: phospho-Thr37, phospho-Thr46, phospho-Ser65, phospho-Thr70, phospho-Ser83 (legend prints pT36, taken as a typo for pT37)
The molecule B5 showed a Kd of 36.1 nM.

B6: Non-phospho 4E-BP2 (protein)
chain: B1 chain with A46T, A65S, A70T, A83S
In turn, B6 had a Kd of 3.2 nM.
